Laboratory results taken from the RNAGym collection of RNA variant scans (doi:10.7554/elife.80360).

B1: Hairpin Ribozyme (parent)
chain: GUCCUCUUUCACGUGCGCGUGAAAGAGAGAAGUGAACCAGAGAAACACACGUUGUGGUAUAUUACCUGGUA

Variants of: B1
Experiment: self-cleavage, relative activity (ratio to wild type); higher = more cleavage; co-transcriptional
For C18U U70A, the self-cleavage was 0.899.
C18U G54A showed a self-cleavage of 0.695.
C18U G54U showed a self-cleavage of 0.702.
With G17C U33C the self-cleavage was 0.237.
G17C U33A showed a self-cleavage of 0.149.
For G17C U33G, the self-cleavage was 0.121.
Work on G17C C37G yielded a self-cleavage of 0.362.
With G17C U63A the self-cleavage was 0.193.
Variant C18G A28U has a self-cleavage of 0.5.
With C18G U70C the self-cleavage was 0.881.
Variant C18A A22G has a self-cleavage of 0.857.
G17C A59G gave a self-cleavage of 0.171.
Work on G17C A59C yielded a self-cleavage of 0.162.
With G17C U55A the self-cleavage was 0.257.
For G17C A47G, the self-cleavage was 0.0817.
With G17C A47U the self-cleavage was 0.222.
Variant G17C A47C has a self-cleavage of 0.187.
In the case of C18A C66A, the self-cleavage is reported as 0.258.
In the case of C18A C66G, the self-cleavage is reported as 0.113.
Variant C18A C66U has a self-cleavage of 0.594.
In the case of G17U A61U, the self-cleavage is reported as 0.158.
Work on G17U A61C yielded a self-cleavage of 0.161.
For G19A A31G, the self-cleavage was 0.7.
For G19A A49G, the self-cleavage was 0.595.
Work on G17U U63G yielded a self-cleavage of 0.0762.
G17U U63C gave a self-cleavage of 0.164.
G17U G69U showed a self-cleavage of 0.258.
In the case of G17A C46A, the self-cleavage is reported as 0.191.
In the case of G17U A23U, the self-cleavage is reported as 0.811.
Variant C18A U70C has a self-cleavage of 0.952.
C18G C38A gave a self-cleavage of 0.11.
Variant C18G C38G has a self-cleavage of 0.125.
For C18G U52A, the self-cleavage was 0.833.
For C18G U52C, the self-cleavage was 1.04.
For C18G U67G, the self-cleavage was 0.275.
G19A A44C gave a self-cleavage of 0.0966.
Work on C18G G19C yielded a self-cleavage of 0.804.
With C18U C48A the self-cleavage was 0.134.
C18U C48U showed a self-cleavage of 0.0571.
C18G A71U showed a self-cleavage of 0.698.
For C18A A45U, the self-cleavage was 0.11.
G17C G34U gave a self-cleavage of 1.42.
G17C G34C gave a self-cleavage of 1.16.
G17C G34A showed a self-cleavage of 1.02.
Variant C18G A44C has a self-cleavage of 0.164.
C18G A44U showed a self-cleavage of 0.135.
Variant G17U G32C has a self-cleavage of 0.137.
With G17U G32U the self-cleavage was 0.121.
For G17U U53C, the self-cleavage was 0.828.
Work on G17C U20C yielded a self-cleavage of 0.585.
G17U C65U showed a self-cleavage of 0.383.
C18A G51A showed a self-cleavage of 1.01.
For C18G A49C, the self-cleavage was 0.12.
C18G A49U showed a self-cleavage of 0.196.
Work on C18A G42U yielded a self-cleavage of 0.369.
Work on C18A G42C yielded a self-cleavage of 0.35.
C18A C65A showed a self-cleavage of 0.957.
Variant C18A A30C has a self-cleavage of 0.166.
C18A G21U showed a self-cleavage of 0.669.
G17A U62A showed a self-cleavage of 0.159.
In the case of C18G C50A, the self-cleavage is reported as 0.245.
For C18G C50G, the self-cleavage was 0.176.
For G17U C46A, the self-cleavage was 0.152.
Work on G17U C46G yielded a self-cleavage of 0.192.
In the case of G19A A22C, the self-cleavage is reported as 0.677.
For C18A A23C, the self-cleavage was 0.863.
Work on C18A A23U yielded a self-cleavage of 0.923.
With C18A U60G the self-cleavage was 0.732.
Variant C18A U60A has a self-cleavage of 1.02.
Work on G17C A44U yielded a self-cleavage of 0.0541.
In the case of G17C A36G, the self-cleavage is reported as 0.48.
G17C A36C gave a self-cleavage of 0.532.
Work on G17C C65A yielded a self-cleavage of 0.748.
G17C A61U gave a self-cleavage of 0.198.
With G17U A49G the self-cleavage was 0.818.
Work on G17U A49U yielded a self-cleavage of 0.195.
C18G A36U gave a self-cleavage of 0.728.
Variant C18A A49G has a self-cleavage of 0.54.
C18A A49U showed a self-cleavage of 0.264.
G17A G57C gave a self-cleavage of 0.146.
Work on G17C U60G yielded a self-cleavage of 0.425.
With C18A A24U the self-cleavage was 0.86.
C18A A24C gave a self-cleavage of 0.994.
With G17U G68U the self-cleavage was 0.207.
Variant G17U G68C has a self-cleavage of 0.162.
In the case of C18G U58C, the self-cleavage is reported as 0.802.
With G17U G25U the self-cleavage was 0.637.
G19A C48A showed a self-cleavage of 0.136.
With C18G G42C the self-cleavage was 0.255.
C18U G27C showed a self-cleavage of 0.228.
In the case of G17U U33C, the self-cleavage is reported as 0.0633.
In the case of G17U U33G, the self-cleavage is reported as 0.186.
Variant C18G A26U has a self-cleavage of 0.512.
For C18U U52A, the self-cleavage was 1.09.
Work on G17U U60A yielded a self-cleavage of 0.738.
Variant C18A G34A has a self-cleavage of 1.33.
Work on C18A G56A yielded a self-cleavage of 0.158.
In the case of C18A G56U, the self-cleavage is reported as 0.196.
Variant G17U A22U has a self-cleavage of 0.793.
In the case of C18A G29U, the self-cleavage is reported as 0.198.
In the case of G17A G54A, the self-cleavage is reported as 0.543.
C18U G32U showed a self-cleavage of 0.118.
Work on C18U G32A yielded a self-cleavage of 0.124.
In the case of C18G A35U, the self-cleavage is reported as 0.544.
Work on C18G C37U yielded a self-cleavage of 0.493.
C18G C37G gave a self-cleavage of 0.259.
Work on C18G C37A yielded a self-cleavage of 0.235.
For C18A C38A, the self-cleavage was 0.132.
For G17A G69A, the self-cleavage was 0.306.
C18A U33G gave a self-cleavage of 0.15.
Work on C18A U33C yielded a self-cleavage of 0.132.
For C18A U33A, the self-cleavage was 0.115.
C18A C48A showed a self-cleavage of 0.14.
C18U U67G gave a self-cleavage of 0.303.
In the case of G17A G56A, the self-cleavage is reported as 0.142.
In the case of G17A G56C, the self-cleavage is reported as 0.185.
With G17A G56U the self-cleavage was 0.137.
With C18G G21A the self-cleavage was 0.767.
G17U C50G showed a self-cleavage of 0.192.
C18G G34U gave a self-cleavage of 1.32.
C18G G34C gave a self-cleavage of 1.17.
C18A A71G gave a self-cleavage of 1.14.
In the case of G17U C48A, the self-cleavage is reported as 0.106.
C18G A23U showed a self-cleavage of 0.752.
C18G A23G gave a self-cleavage of 0.84.
G17A G51C showed a self-cleavage of 0.656.
Work on C18U A39U yielded a self-cleavage of 0.429.
With C18U A39C the self-cleavage was 0.66.
C18U A41G gave a self-cleavage of 1.04.
C18U A59C showed a self-cleavage of 0.237.
For C18U A59U, the self-cleavage was 0.176.
Work on G17C G54C yielded a self-cleavage of 0.387.
Work on G17C G54A yielded a self-cleavage of 0.36.
With C18U C50U the self-cleavage was 0.326.
With G17U A35U the self-cleavage was 0.557.
In the case of G17A C48G, the self-cleavage is reported as 0.102.
With G17A C48A the self-cleavage was 0.145.
Variant G17U U67G has a self-cleavage of 0.278.
In the case of G17U U67A, the self-cleavage is reported as 0.249.
In the case of C18G G29A, the self-cleavage is reported as 0.133.
C18G G57A gave a self-cleavage of 0.118.
For C18G G57U, the self-cleavage was 0.243.
In the case of G17C C66A, the self-cleavage is reported as 0.154.
For G17C C66G, the self-cleavage was 0.0719.
In the case of C18U A71C, the self-cleavage is reported as 1.33.
Work on C18U A71G yielded a self-cleavage of 1.09.
C18U C37U gave a self-cleavage of 0.713.
With G17C C38G the self-cleavage was 0.245.
For G17C C38U, the self-cleavage was 0.481.
C18U G42U gave a self-cleavage of 0.407.
Work on C18U A26U yielded a self-cleavage of 0.59.
C18U A26G showed a self-cleavage of 0.975.
For C18U G56U, the self-cleavage was 0.115.
Variant C18U G56C has a self-cleavage of 0.179.
C18G G32A showed a self-cleavage of 0.154.
Variant C18G G32U has a self-cleavage of 0.1.
Variant C18A G54C has a self-cleavage of 0.395.
G17C G21U gave a self-cleavage of 0.53.
In the case of G17C C18A, the self-cleavage is reported as 0.947.
With G17C C18G the self-cleavage was 0.645.
G17U G19C gave a self-cleavage of 0.846.
C18G U60C gave a self-cleavage of 1.02.
C18G U60A gave a self-cleavage of 0.9.
For C18G U60G, the self-cleavage was 0.483.
Variant C18A G40C has a self-cleavage of 0.0959.
Work on G19A C37U yielded a self-cleavage of 0.567.
With C18U G29A the self-cleavage was 0.194.
